Here are results for 1 molecule from patent US20230119254A1, “SYNERGISTIC AND TARGETING COMPOSITIONS FOR TREATMENT OF ARTERIAL AND VENOUS THROMBOSIS” (AstraZeneca AB, priority 2020, published 2023).

The test system of data set [1] is peripheral blood mononuclear cells (PBMC) from anesthetized rabbits. Put plainly: LPS-induced Factor X activation in rabbit PBMC. It is filed as cell-based. The note with it: rabbit PBMCs. Here is the method: (§1) Peripheral blood mononuclear cells were incubated with LPS (1 mg/ml) to induce tissue factor expression and FX activation measured in the presence of FVII, FX and chromogenic substrate 52765.
(§2) The inhibitory activity on FX activation was assayed using peripheral blood mononuclear cells (PBMC) purified from normal human donors and anesthetized rabbits by standard methods. […] As expected, APT102 had no effect on PBMC pro-coagulant activity.

Data set [2] concerns human platelet-rich plasma (PRP). Put plainly: ADP-induced human platelet aggregation in platelet-rich plasma. The note with it: ADP-activated, light transmission, 6 min. It is filed as cell-based. Here is the method:
FIGS. 1A and 1B show the effect of apyrase APT102 used as such and of a fusion protein thereof, APT402, on platelet aggregation in an ex vivo reaction mixture comprising human platelet-rich plasma (PRP) activated with 20 μM ADP. […] X axis is the assay time (6 min duration), Y axis is the light transmission. […] Arrows indicate addition of ADP and apyrases.
as §2

The subject of data set [3] is IVC fibrosis (collagen deposition). Kind of data set: Chronic murine electrolytic injury model (EIM) of DVT, fibrosis. Format: in vivo. To be noted: mice, 1.0 mg/kg ip bolus daily for 14 days. From the text:
In a chronic fibrotic study, mice were randomized and blinded into the following groups (n=5-12/group).
Collagen deposition was stained with Masson's trichrome 14 days post DVT induction.

The test system of data set [4] is thrombin generation in human platelet rich plasma. Put plainly: Thrombin generation by calibrated automated thrombography (CAT) in ADP-activated human PRP. Format: cell-based. To be noted: 20 uM ADP-activated human platelets, equal molar concentrations. The protocol:
Shown are thrombograms of nanomolar thrombin that were generated in human platelet rich plasma activated with […].
Thrombin generation in citrated human platelet rich plasma (PRP) was quantified by calibrated automated thrombography (CAT) using the Thrombinoscope system (Synapse), according to methods developed by Hemker et al. Aliquots of PRP were incubated with agents for 15 min at room temperature, and then for 5 min at 37° C. in wells of 96-well plates. Thrombin generation was initiated by addition of 0.5 pM tissue factor and CaCl2 to 16.7 mM and monitored in a microtiter plate fluorometer (Fluoroskan Ascent, Thermo Electron Corp., Vantaa, Finland). Thrombograms (nM thrombin generated vs. time) were generated using the Thrombinoscope software, as were key thrombin generation parameters: lag time to onset of thrombin generation (min), peak thrombin concentration (nM), time to peak thrombin (min), and endogenous thrombin potential (ETP; integrated area under the thrombogram curve).
The effects of APT102, annexin V, APT102+annexin V, and APT402 at equal molar concentrations on thrombin generation from 20 uM ADP-activated human platelets were compared using CAT assays (FIG. 3). […] These features were mimicked by APT402.

In data set [5] the test system is peripheral blood mononuclear cells (PBMC) from normal human donors. Put plainly: LPS-induced Factor X activation in human PBMC. To be noted: human PBMCs. Format: cell-based. The protocol: as §1, §2

B1: APT102: soluble apyrase, enhanced form of soluble CD39L3 R67G T69R (SEQ ID NO: 2) (protein)
chain: EVLPPGLKYGIVLDAGSSGTRVYVYQWPAEKENNTGVVSQTFKCSVKGSGISSYGNNPQDVPRAFEECMQKVKGQVPSHLHGSTPIHLGATAGMRLLRLQNETAANEVLESIQSYFKSQPFDFRGAQIISGQEEGVYGWITANYLMGNFLEKNLWHMWVHPHGVETTGALDLGGASTQISFVAGEKMDLNTSDIMQVSLYGYVYTLYTHSFQCYGRNEAEKKFLAMLLQNSPTKNHLTNPCYPRDYSISFTMGHVFDSLCTVDQRPESYNPNDVITFEGTGDPSLCKEKVASIFDFKACHDQETCSFDGVYQPKIKGPFVAFAGFYYTASALNLSGSFSLDTFNSSTWNFCSQNWSQLPLLLPKFDEVYARSYCFSANYIYHLFVNGYKFTEETWPQIHFEKEVGNSSIAWSLGYMLSLTNQIPAESPLIRLPIEPPV
In the case of B1, in data set [1], the “reduction in LPS-induced FX activation” value was “no effect”. In addition, in data set [2], the “inhibition of ADP-induced human platelet aggregation” value is “dose-dependently inhibits”. The “deaths, increased bleeding or gross side effects” value in data set [3] is “no deaths or increased bleeding or gross side effects”. Also, the “reduction of collagen deposition” value in data set [3] (Masson's trichrome 14 days post DVT induction) is listed as 11%. Further, in data set [4], the peak thrombin concentration result was “modest inhibitory effect” and the “time to peak thrombin” value was “modest inhibitory effect”. The “reduction in LPS-induced FX activation” value in data set [5] was “no effect”.
